In assay [1] the target is eIF4E4 eYFP fusion protein (T. brucei). Briefly: co-IP; eYFP fusion of eIF4E4 or G1-IP2 precipitated from cryomilled powder in low salt buffer with anti-GFP nanobody LaG16-LaG2 on magnetic beads; co-precipitated PABP-4Ty1 detected by western blot with anti-Ty1 (BB2); enrichment against beads without antibody, two replicates. Background: A western blot detects proteins with antibodies after separation by electrophoresis.

Assay [2] has as its target T1, G1-IP2 eYFP fusion protein (T. brucei, UniProt Q387L6 1-435).
T1 construct: The methods say N-terminal eYFP for all proteins but RBP23; the results print the label G1-IP2-eYFP; source: T. brucei procyclic Lister 427, expressed from the endogenous locus, in lysate of cryomilled cells; not shown: eYFP, N-terminal, kept
T1 sequence (looked up): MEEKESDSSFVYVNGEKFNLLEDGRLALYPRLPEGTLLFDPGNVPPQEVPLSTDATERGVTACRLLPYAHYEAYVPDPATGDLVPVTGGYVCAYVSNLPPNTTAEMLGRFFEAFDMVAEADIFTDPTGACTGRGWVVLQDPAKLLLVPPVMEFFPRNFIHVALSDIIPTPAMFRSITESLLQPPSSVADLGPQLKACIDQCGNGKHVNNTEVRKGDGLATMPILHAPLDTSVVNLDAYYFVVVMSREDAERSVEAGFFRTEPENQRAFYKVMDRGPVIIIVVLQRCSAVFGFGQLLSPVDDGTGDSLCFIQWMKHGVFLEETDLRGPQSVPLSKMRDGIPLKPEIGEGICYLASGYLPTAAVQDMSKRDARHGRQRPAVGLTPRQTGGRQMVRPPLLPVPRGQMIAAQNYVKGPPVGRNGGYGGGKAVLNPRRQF
The description is as above.

Like-named read-outs stand apart in the source and are kept apart here.

Regarding PABP2-4Ty1 (natural protein), the enrichment ratio against control beads without antibody in assay [1] amounted to 3 fold; in assay [2] it was 19 fold.

B1: PABP1-4Ty1 (natural protein, T. brucei, UniProt Q38E63 1-566, looked up)
chain: MTIAAQGVPSGPSATKPLQVASLYVGDLDPAINEPQLVDIFKPYGTILNVRVCRDIITQRSLGYGYVNYDDVNSASKAMEELNFKRVGEKCIRIMWQQRDPALRYSGSGNIFVKNLKEEVDSRELSLIFKKFGEILSCKVMDDESGKSRGYGFVHFKDDDAAKAAIEKMNGDKEHADADKAALYVANFIRRNARLAALVANFTNVYIKQLLPTVDKDVIEKFFSKFGGITSAAICKDKNGRAFAFCNFEKHDDAVKAIEASHDQEVEGVTQPGEKLYVQRAQPRSERLIALRQKYMQCQSLGNNLYVRNFDAEFTEKDLNELFKEYGVIRSCRVMTDANGISRGFGFVSFENADQANAALREMNGRMLNGKPLVVNIAQRRDQRLTMLKLQLQQRLQMMMHHMHPPPFGMPGHPLQRRNARSGGRGNRPHPRQQQPQPQPEPQPPLATTVPPAAAHSVMFTAPSMGFSAVPRTPQASPAIAPDTPPLPPISAEDLQQMSVDEQRAALGDRLYIKVHELAPDHAPKITGMFLEMNPKEALALLSNPKLMHEKVTEALCVLKVHASSA
notes: also called PABP-Ty1; source: T. brucei procyclic Lister 427, expressed from the endogenous locus, in lysate of cryomilled cells
Take B1: the values for the enrichment ratio against control beads without antibody in assay [1] and in assay [2] (partners not purified) were 64 fold and 4 fold, respectively.

The values are drawn from publication PMC6075789, “Comparative proteomics of the two T. brucei PABPs suggests that PABP2 controls bulk mRNA” (PLoS Neglected Tropical Diseases, 2018).
